According to article PMC5028032, “Linkage between Fitness of Yeast Cells and Adenylate Kinase Catalysis” (PLoS ONE, 2016):
Substitutions are numbered along the chain they refer to. Names may count otherwise.

B1: Adkeco (Escherichia coli K-12; INS40STGDMLSAAVK/R36S) (protein)
chain: MRIILLGAPGAGKGTQAQFIMEKYGIPQISTGDMLSAAVKSTGDMLSAAVKSGSELGKQAKDIMDAGKLVTDELVIALVKERIAQEDCRNGFLLDGFPRTIPQADAMKEAGINVDYVLEFDVPDELIVDRIVGRRVHAPSGRVYHVKFNPPKVEGKDDVTGEELTTRKDDQEETVRKRLVEYHQMTAPLIGYYSKEAEAGNTKYAKVDGTKPVAEVRADLEKILG
B2: Adk1yeast (Saccharomyces cerevisiae S288C) (protein)
chain: SSESIRMVLIGPPGAGKGTQAPNLQERFHAAHLATGDMLRSQIAKGTQLGLEAKKIMDQGGLVSDDIMVNMIKDELTNNPACKNGFILDGFPRTIPQAEKLDQMLKEQGTPLEKAIELKVDDELLVARITGRLIHPASGRSYHKIFNPPKEDMKDDVTGEALVQRSDDNADALKKRLAAYHAQTEPIVDFYKKTGIWAGVDASQPPATVWADILNKLGKD
notes: full-length wild type, recombinant, 15N-enriched, purified as previously described
B3: Adkeco (Escherichia coli K-12; G56C) (protein)
chain: MRIILLGAPGAGKGTQAQFIMEKYGIPQISTGDMLRAAVKSGSELGKQAKDIMDACKLVTDELVIALVKERIAQEDCRNGFLLDGFPRTIPQADAMKEAGINVDYVLEFDVPDELIVDRIVGRRVHAPSGRVYHVKFNPPKVEGKDDVTGEELTTRKDDQEETVRKRLVEYHQMTAPLIGYYSKEAEAGNTKYAKVDGTKPVAEVRADLEKILG
B4: Adkeco (Escherichia coli K-12; R36A) (protein)
chain: B3 chain with R36A, C56G

Key:
purified protein [1] = substrate: Nc1ncnc2c1ncn2[C@@H]1O[C@H](COP(=O)(O)OP(=O)(O)OP(=O)(O)O)[C@@H](O)[C@H]1O; experiment: purified protein; details: 300 μM AMP constant, 2 mM MgCl2, 80 mM KCl, 100 mM Tris pH 7.5, 20°C
purified protein [2] = substrate: Nc1ncnc2c1ncn2[C@@H]1O[C@H](COP(=O)(O)OP(=O)(O)OP(=O)(O)O)[C@@H](O)[C@H]1O; experiment: purified protein; type: biochemical, Saccharomyces cerevisiae; details: 300 μM AMP constant, 2 mM MgCl2, 80 mM KCl, 100 mM Tris pH 7.5, 20°C
[3] = 11 residues STGDMLSAAVK inserted between Lys40 and Ser41

| Protein | Km (purified protein [1]) [µM] | kcat (purified protein [1]) [s⁻¹] | kcat/Km (purified protein [1]) [M⁻¹ s⁻¹] | also measured |
| --- | --- | --- | --- | --- |
| B1 |  |  |  | Km (purified protein [1]; [3]): 127 ± 30 µM; kcat (purified protein [1]; [3]): 2 s⁻¹; kcat/Km (purified protein [1]; [3]): 20000 M⁻¹ s⁻¹ |
| B2 |  |  |  | Km (purified protein [2]): 71 ± 18 µM; kcat (purified protein [2]): 520 ± 32 s⁻¹; kcat/Km (purified protein [2]): 7.29e+06 ± 470000 M⁻¹ s⁻¹ |
| B3 | 34 ± 2 | 36 | 1.04e+06 |  |
| B4 | 193 ± 7 | 19 | 100000 |  |
